The source of these data is patent US20230312721A1 (published 2023).

T1: 4Ig human B7-H3 (human, UniProt Q5ZPR3 29-466, limits assumed)
T1 construct: Soluble analyte in SPR; also called 4Ig-B7H3; 4Ig B7H3
T1 sequence: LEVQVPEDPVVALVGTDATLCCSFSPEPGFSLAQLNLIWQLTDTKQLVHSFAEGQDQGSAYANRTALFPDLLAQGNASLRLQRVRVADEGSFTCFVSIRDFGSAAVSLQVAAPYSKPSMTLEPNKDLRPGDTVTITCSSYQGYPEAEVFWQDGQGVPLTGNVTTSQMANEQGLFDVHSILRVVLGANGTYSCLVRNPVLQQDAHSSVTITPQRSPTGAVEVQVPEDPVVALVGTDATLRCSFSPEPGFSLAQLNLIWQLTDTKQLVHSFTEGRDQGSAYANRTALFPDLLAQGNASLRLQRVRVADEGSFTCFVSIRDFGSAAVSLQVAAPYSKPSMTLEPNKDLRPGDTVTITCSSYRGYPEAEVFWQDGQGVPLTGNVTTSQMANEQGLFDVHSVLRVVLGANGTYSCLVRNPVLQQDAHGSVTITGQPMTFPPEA

B1: L3H1 (antibody, human IgG1, kappa, V domains shown)
VH: QVQLVQSGAEVKKPGASVKVSCKASGYTFTNYDINWVRQATGQGLEWIGWIFPGDGSTQYNEKFQGRVTLTTNTSISTAYMELSSLRSEDTAVYYCARQTTATWFAYWGQGTLVTVSS
VL: EIVMTQSPDFQSVTPKEKVTLTCRASQSISDYLHWYQQKPDQSPKLLIKYASQSISGVPSRFSGSGSGSDFTLTINSLEAEDAGVYYCQNGHSFPLTFGQGTKLEIKR
notes: Humanized IgG1, HEK293; chains tied by the L/H names; also called YB8 L3 + YB8 H1
B2: L1H4 (antibody, human IgG1, kappa)
heavy: not shown
light: EIVLTQSPDFQSVTPKEKVTLTCRASQSISDYLHWYQQKPDQSPKLLIKYASQSISGVPSRFSGSGSGSDFTLTINSLEAEDAATYYCQNGHSFPLTFGQGTKLEIKRTVAAPSVFIFPPSDEQLKSGTASVVCLLNNFYPREAKVQWKVDNALQSGNSQESVTEQDSKDSTYSLSSTLTLSKADYEKHKVYACEVTHQGLSSPVTKSFNRGEC
notes: Humanized IgG1, HEK293; chains tied by the L/H names; also called YB8 L1 + YB8 H4
B3: L4H6 (antibody, human IgG1, kappa, V domains shown)
VH: B1 VH with V5Q, V20L, N61A, E62Q, V68A, Y95F
VL: B1 VL with V58I, S69T, L78V
notes: Humanized IgG1, HEK293; chains tied by the L/H names; also called YB8 L4 + YB8 H6
B4: L1H2 (antibody, human IgG1, kappa)
heavy: not shown
light: B2 light
notes: Humanized IgG1, HEK293; chains tied by the L/H names; also called YB8 L1 + YB8 H2
B5: L3H5 (antibody, human IgG1, kappa, V domains shown)
VH: B1 VH with I48M, L70M
VL: B1 VL
notes: Humanized IgG1, HEK293; chains tied by the L/H names; also called YB8 L3 + YB8 H5
B6: L4H3 (antibody, human IgG1, kappa, V domains shown)
VH: B1 VH with I48M, Q65K, T72R, Y95F
VL: B1 VL with V58I, S69T, L78V
notes: Humanized IgG1, HEK293; chains tied by the L/H names; also called YB8 L4 + YB8 H3
B7: L3H6 (antibody, human IgG1, kappa, V domains shown)
VH: B1 VH with V5Q, V20L, N61A, E62Q, V68A, Y95F
VL: B1 VL
notes: Humanized IgG1, HEK293; chains tied by the L/H names; also called YB8 L3 + YB8 H6
B8: L2H2 (antibody, human IgG1, kappa)
heavy: not shown
light: B2 light with L4M, L21I
notes: Humanized IgG1, HEK293; chains tied by the L/H names; also called YB8 L2 + YB8 H2
B9: L4H1 (antibody, human IgG1, kappa, V domains shown)
VH: B1 VH
VL: B1 VL with V58I, S69T, L78V
notes: Humanized IgG1, HEK293; chains tied by the L/H names; also called YB8 L4 + YB8 H1
B10: L4H4 (antibody, human IgG1, kappa, V domains shown)
VH: B1 VH with L70M, Y95F
VL: B1 VL with V58I, S69T, L78V
notes: Humanized IgG1, HEK293; chains tied by the L/H names; also called YB8 L4 + YB8 H4
B11: L4H5 (antibody, human IgG1, kappa, V domains shown)
VH: B1 VH with I48M, L70M
VL: B1 VL with V58I, S69T, L78V
notes: Humanized IgG1, HEK293; chains tied by the L/H names; also called YB8 L4 + YB8 H5
B12: L3H2 (antibody, human IgG1, kappa, V domains shown)
VH: B1 VH with V5Q, Q65K, V68A, T72R
VL: B1 VL
notes: Humanized IgG1, HEK293; chains tied by the L/H names; also called YB8 L3 + YB8 H2
B13: L3H3 (antibody, human IgG1, kappa, V domains shown)
VH: B1 VH with I48M, Q65K, T72R, Y95F
VL: B1 VL
notes: Humanized IgG1, HEK293; chains tied by the L/H names; also called YB8 L3 + YB8 H3
B14: L1H5 (antibody, human IgG1, kappa)
heavy: not shown
light: B2 light
notes: Humanized IgG1, HEK293; chains tied by the L/H names; also called YB8 L1 + YB8 H5
B15: L1H1 (antibody, human IgG1, kappa)
heavy: not shown
light: B2 light
notes: Humanized IgG1, HEK293; chains tied by the L/H names; also called YB8 L1 + YB8 H1
B16: L2H6 (antibody, human IgG1, kappa)
heavy: not shown
light: B2 light with L4M, L21I
notes: Humanized IgG1, HEK293; chains tied by the L/H names; also called YB8 L2 + YB8 H6
B17: L3H4 (antibody, human IgG1, kappa, V domains shown)
VH: B1 VH with L70M, Y95F
VL: B1 VL
notes: Humanized IgG1, HEK293; chains tied by the L/H names; also called YB8 L3 + YB8 H4
B18: L2H4 (antibody, human IgG1, kappa)
heavy: not shown
light: B2 light with L4M, L21I
notes: Humanized IgG1, HEK293; chains tied by the L/H names; Lead candidate; also called YB8 L2 + YB8 H4
B19: L1H3 (antibody, human IgG1, kappa)
heavy: not shown
light: B2 light
notes: Humanized IgG1, HEK293; chains tied by the L/H names; also called YB8 L1 + YB8 H3
B20: L2H3 (antibody, human IgG1, kappa)
heavy: not shown
light: B2 light with L4M, L21I
notes: Humanized IgG1, HEK293; chains tied by the L/H names; Lead candidate; also called YB8 L2 + YB8 H3
B21: L2H1 (antibody, human IgG1, kappa)
heavy: not shown
light: B2 light with L4M, L21I
notes: Humanized IgG1, HEK293; chains tied by the L/H names; also called YB8 L2 + YB8 H1
B22: L2H5 (antibody, human IgG1, kappa)
heavy: not shown
light: B2 light with L4M, L21I
notes: chains tied by the L/H names; Selected lead; also called YB8-L2H5; YB8 L2 + YB8 H5
B23: L1H6 (antibody, human IgG1, kappa)
heavy: not shown
light: B2 light
notes: Humanized IgG1, HEK293; chains tied by the L/H names; also called YB8 L1 + YB8 H6
B24: L4H2 (antibody, human IgG1, kappa, V domains shown)
VH: B1 VH with V5Q, Q65K, V68A, T72R
VL: B1 VL with V58I, S69T, L78V
notes: Humanized IgG1, HEK293; chains tied by the L/H names; also called YB8 L4 + YB8 H2
B25: chimeric anti-B7H3 IgG (Chimeric Heavy Chain (Parental) + Chimeric Light chain (parental)) (antibody, V domains shown)
VH: QVQLQQSGAELVKPGASVKLSCKASGYTFTNYDINWVRQRPEQGLEWIGWIFPGDGSTQYNEKFKGKATLTTDTSSSTAYMQLSRLTSEDSAVYFCARQTTATWFAYWGQGTLVTVSA
VL: DIVMTQSPATLSVTPGDRVSLSCRASQSISDYLHWYQQKSHESPRLLIKYASQSISGIPSRFSGSGSGSDFTLSINSVEPEDVGVYYCQNGHSFPLTFGAGTKLELKR
notes: Chimeric IgG1 with murine 8H9 variable domains, expressed in HEK293; also called Chimeric IgG; parental chimeric antibody

Where a chain is given by its changes, count along the chain named.

For the test, the target named is T1, 4Ig human B7-H3. Nature of the test: SPR, Carterra LSA; antibody captured on anti-human Fc lawn, 4Ig human B7-H3 as analyte. As to the method:
Chimeric and humanized antibodies were generated using CDR grafting methods using closely homologous human germline sequences. Six different humanized VH and four humanized VL sequences were combined to generate 24 different humanized IgG1 antibodies. The antibodies were expressed in HEK293 cells and purified using Protein A resin. Antibodies were buffer exchanged into PBS and quantified by OD280 and titer was calculated. Sample purity and aggregation status was determined by analytical Size Exclusion Chromatography (SEC-HPLC), which separates molecules based on molecular mass and hydrodynamic volume. Area % of each peak is calculated based on total area of the peaks. Peak symmetry is calculated to determine the peak fronting (<1) or tailing (>1). A column of 300A pore size was used for detection at 280 nm and PBS as the running buffer. Surface plasmon resonance studies to assess binding affinities were carried out on a Carterra LSA instrument. An anti-human Fc antibody “lawn” was prepared on a HC30M chip by amine coupling. The chip was activated with equal volume of 100 mM MES pH 5.5, 100 mM S-NHS and 400 mM EDC. The anti-human IgG Fc antibody was immobilized. The chip was deactivated with 1 M ethanolamine pH 8.5. Antibodies were diluted and printed onto the anti-human Fc lawn. An 8-point series of 4Ig human B7-H3 was prepared.
The characterization data, including expression titers (mg of purified protein per L of culture), purity (% monomer peak by analytical SEC-HPLC) and affinity measurement by SPR (ka, kd and KD) are summarized in Table 1 and FIG. 1-4.
Take B1: the Kd is 10 nM, the off-rate constant (koff) is 0.00034 s⁻¹ and the kon came to 34000 M⁻¹ s⁻¹.
The corresponding values for B2 are 9.5 nM, 0.00041 s⁻¹ and 43000 M⁻¹ s⁻¹.
The corresponding values for B3 are 9.6 nM, 0.00042 s⁻¹ and 43000 M⁻¹ s⁻¹.
In the same order, the values of B4 are 14 nM, 0.00041 s⁻¹ and 29000 M⁻¹ s⁻¹.
In turn, B5 gave a Kd of 9.2 nM, a koff of 0.00035 s⁻¹ and an on-rate constant (kon) of 38000 M⁻¹ s⁻¹.
As for B6, the dissociation constant (Kd) was 13 nM, the dissociation rate constant (koff) is 0.00039 s⁻¹ and the on-rate (kon) came to 31000 M⁻¹ s⁻¹.
The molecule B7 registered a Kd of 20 nM, a koff of 0.0005 s⁻¹ and a kon of 25000 M⁻¹ s⁻¹.
The corresponding values for B8 are 11 nM, 0.00037 s⁻¹ and 33000 M⁻¹ s⁻¹.
In the same order, the values of B9 are 23 nM, 0.00055 s⁻¹ and 24000 M⁻¹ s⁻¹.
For the molecule B10, the Kd was determined as 11 nM, the off-rate constant (koff) is 0.00036 s⁻¹ and the on-rate (kon) came out at 34000 M⁻¹ s⁻¹.
The corresponding values for B11 are 9.3 nM, 0.0004 s⁻¹ and 43000 M⁻¹ s⁻¹.
Take B12: the Kd stood at 11 nM, the dissociation rate constant (koff) was 0.00035 s⁻¹ and the kon was 32000 M⁻¹ s⁻¹.
The corresponding values for B13 are 9.7 nM, 0.00032 s⁻¹ and 32000 M⁻¹ s⁻¹.
The corresponding values for B14 are 11 nM, 0.00042 s⁻¹ and 39000 M⁻¹ s⁻¹.
Take B15: the dissociation constant (Kd) is 15 nM, the koff was 0.00043 s⁻¹ and the kon came to 31000 M⁻¹ s⁻¹.
The molecule B16 yielded a Kd of 24 nM, an off-rate (koff) of 0.00051 s⁻¹ and a kon of 21000 M⁻¹ s⁻¹.
The corresponding values for B17 are 8.4 nM, 0.00033 s⁻¹ and 40000 M⁻¹ s⁻¹.
Turning to B18, binding was put at a Kd of 8.2 nM, the koff was determined as 0.00036 s⁻¹ and the on-rate constant (kon) amounted to 44000 M⁻¹ s⁻¹.
The corresponding values for B19 are 8.1 nM, 0.00035 s⁻¹ and 43000 M⁻¹ s⁻¹.
The corresponding values for B20 are 9.9 nM, 0.00034 s⁻¹ and 34000 M⁻¹ s⁻¹.
The molecule B21 showed a dissociation constant (Kd) of 11 nM, a koff of 0.00041 s⁻¹ and an on-rate constant (kon) of 39000 M⁻¹ s⁻¹.
In the same order, the values of B22 are 9.4 nM, 0.0004 s⁻¹ and 42000 M⁻¹ s⁻¹.
In the same order, the values of B23 are 25 nM, 0.00066 s⁻¹ and 26000 M⁻¹ s⁻¹.
In the same order, the values of B24 are 11 nM, 0.00039 s⁻¹ and 36000 M⁻¹ s⁻¹.
As to B25, the Kd came to 10 nM, the dissociation rate constant (koff) was found to be 0.00079 s⁻¹ and the kon was found to be 78000 M⁻¹ s⁻¹.
